Results taken from patent publication US20180105832A1 (FRAUNHOFER GESELLSCHAFT ZUR FOERDERUNG DER ANGEWANDTEN …, published 2018).

Molecular target: T1, Pepscan peptide 3 of CSP (amino acids 25-37) (Aspergillus flavus)
T1 peptide: YDDPDCDPGFTCR
Test: Pepscan-ELISA

B1: Aspergillus-specific monoclonal antibody AP10 (mAbAP10) (antibody, V domains shown)
VH: DVQLVESGGGLVQPGGSRKLSCAASGFTFSSFGMHWVRQAPEKGLEWVAYINGGSGTIYYADTVKGRFTISRDNPRNTLFLQMETTSLRSEDTAMYYCARGGDDPFAYWGQGTLVTV
VL: IQMTQSPSSLSAYLGDKVTITCMASQDINNHIAWYQLKPGKGPRLLIHYTSTLHPGIPSRFSGSGSGRDYSFSISDLEPEDIATYYCLQYDNLRTFGGGTKLEIK
notes: also called CSP-specific mAbAP10
binding efficiency relative to peptide 4: 2 fold
